According to patent US20200024330A1:

Tests used:
Experiment in all cases: cell-based or functional assay
[1] = biological target: aMLV envelope (negative control pseudovirus)
[2] = biological target: HIV-1 Env of isolate MGRM-Chronic-B-023 (HIV-1)
[3] = biological target: HIV-1 Env of isolate JRFL (HIV-1)
[4] = biological target: HIV-1 Env of isolate MGRM-AE-006 (HIV-1)
[5] = biological target: HIV-1 Env of isolate MGRM-Chronic-B-012 (HIV-1)
[6] = biological target: HIV-1 Env of isolate MGRM-AG-005 (HIV-1)
[7] = biological target: HIV-1 Env of isolate MGRM-AG-003 (HIV-1)
[8] = biological target: HIV-1 Env of isolate MGRM-Chronic-B-010 (HIV-1)
[9] = biological target: HIV-1 Env of isolate MGRM-AG-009 (HIV-1)
[10] = biological target: HIV-1 Env of isolate MGRM-AE-008 (HIV-1)
[11] = biological target: HIV-1 Env of isolate MGRM-AG-008 (HIV-1)
[12] = biological target: HIV-1 Env of isolate MGRM-AE-007 (HIV-1)
[13] = biological target: HIV-1 Env of isolate MGRM-Chronic-B-018 (HIV-1)
[14] = biological target: HIV-1 Env of isolate MGRM-Chronic-B-011 (HIV-1)
[15] = biological target: HIV-1 Env of isolate MGRM-AG-001 (HIV-1)
[16] = biological target: HIV-1 Env of pseudovirus APV_13, clade B (HIV-1)
[17] = biological target: HIV-1 Env of isolate MGRM-AG-002 (HIV-1)
[18] = biological target: HIV-1 Env of isolate MGRM-AE-005 (HIV-1)
[19] = biological target: HIV-1 92RW020 envelope glycoprotein (Env) on pseudovirus (HIV-1)
[20] = biological target: HIV-1 92BR020 envelope glycoprotein (Env) on pseudovirus (HIV-1)
[21] = biological target: HIV-1 Env of isolate MGRM-AE-004 (HIV-1)
[22] = biological target: HIV-1 Env of isolate MGRM-AG-006 (HIV-1)
[23] = biological target: HIV-1 Env of isolate MGRM-AG-013 (HIV-1)
[24] = biological target: HIV-1 Env of isolate MGRM-G-001 (HIV-1)
[25] = biological target: HIV-1 Env of isolate MGRM-Chronic-B-017 (HIV-1)
[26] = biological target: HIV-1 Env of isolate MGRM-AG-012 (HIV-1)
[27] = biological target: HIV-1 Env of isolate MGRM-Chronic-B-024 (HIV-1)
[28] = biological target: HIV-1 NL43 envelope glycoprotein (Env) on pseudovirus (HIV-1)
[29] = biological target: HIV-1 Env of isolate MGRM-AG-011 (HIV-1)
[30] = biological target: HIV-1 92UG024 envelope glycoprotein (Env) on pseudovirus (HIV-1)
[31] = biological target: HIV-1 Env of isolate MGRM-Chronic-B-020 (HIV-1)
[32] = biological target: HIV-1 92TH021 envelope glycoprotein (Env) on pseudovirus (HIV-1)
[33] = biological target: HIV-1 Env of isolate MGRM-G-004 (HIV-1)
[34] = biological target: HIV-1 Env of isolate MGRM-G-009 (HIV-1)
[35] = biological target: HIV-1 MGRM-A-012 envelope glycoprotein (Env) (HIV-1)
[36] = biological target: HIV-1 Env of isolate MGRM-G-006 (HIV-1)

1443_C16 (PG16) (TCN-116) (antibody), sequence (VH): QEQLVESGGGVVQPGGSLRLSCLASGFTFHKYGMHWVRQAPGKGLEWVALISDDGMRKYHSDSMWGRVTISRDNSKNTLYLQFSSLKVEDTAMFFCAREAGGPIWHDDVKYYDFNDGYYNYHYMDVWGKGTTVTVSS
1443_C16 (PG16) (TCN-116) (antibody), sequence (VL): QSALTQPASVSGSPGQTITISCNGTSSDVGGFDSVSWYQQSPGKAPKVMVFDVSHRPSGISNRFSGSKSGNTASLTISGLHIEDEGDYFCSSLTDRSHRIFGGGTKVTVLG

| Substance | IC50 (µg/ml), pseudovirus neutralization [1] [µg/mL] | IC50 (µg/ml), pseudovirus neutralization [2] [µg/mL] | IC50 (µg/ml), pseudovirus neutralization [3] [µg/mL] | IC50 (µg/ml), pseudovirus neutralization [4] [µg/mL] | IC50 (µg/ml), pseudovirus neutralization [5] [µg/mL] | IC50 (µg/ml), pseudovirus neutralization [6] [µg/mL] | IC50 (µg/ml), pseudovirus neutralization [7] [µg/mL] | IC50 (µg/ml), pseudovirus neutralization [8] [µg/mL] | IC50 (µg/ml), pseudovirus neutralization [9] [µg/mL] | IC50 (µg/ml), pseudovirus neutralization [10] [µg/mL] | IC50 (µg/ml), pseudovirus neutralization [11] [µg/mL] | IC50 (µg/ml), pseudovirus neutralization [12] [µg/mL] | IC50 (µg/ml), pseudovirus neutralization [13] [µg/mL] | IC50 (µg/ml), pseudovirus neutralization [14] [µg/mL] | IC50 (µg/ml), pseudovirus neutralization [15] [µg/mL] | IC50 (µg/ml), pseudovirus neutralization [16] [µg/mL] | IC50 (µg/ml), pseudovirus neutralization [17] [µg/mL] | IC50 (µg/ml), pseudovirus neutralization [18] [µg/mL] | IC90 (pseudovirus neutralization) [19] [µg/mL] | IC90 (pseudovirus neutralization) [20] [µg/mL] | further results |
| --- | --- | --- | --- | --- | --- | --- | --- | --- | --- | --- | --- | --- | --- | --- | --- | --- | --- | --- | --- | --- | --- |
| 1443_C16 (PG16) (TCN-116) (antibody) | > 50 | 0.13 | > 50 | 0.03 | 3.74 | > 50 | > 50 | 0.01 | > 50 | 3.25 | 0.002 | 0.04 | 0.7 | > 50 | 0.03 | > 50 | 0.03 | 0.02 | > 50 | > 50 | IC50 (µg/ml), pseudovirus neutralization [21]: 0.002 µg/mL; IC50 (µg/ml), pseudovirus neutralization [22]: > 50 µg/mL; IC50 (µg/ml), pseudovirus neutralization [23]: 0.31 µg/mL; IC50 (µg/ml), pseudovirus neutralization [24]: 0.15 µg/mL; IC50 (µg/ml), pseudovirus neutralization [25]: 0.02 µg/mL; IC50 (µg/ml), pseudovirus neutralization [26]: 25.1 µg/mL; IC50 (µg/ml), pseudovirus neutralization [27]: 0.01 µg/mL; IC90 (pseudovirus neutralization) [28]: > 50 µg/mL; IC50 (µg/ml), pseudovirus neutralization [29]: 0.002 µg/mL; IC90 (pseudovirus neutralization) [30]: > 50 µg/mL; IC50 (µg/ml), pseudovirus neutralization [31]: > 50 µg/mL; IC90 (pseudovirus neutralization) [32]: 23.4 µg/mL; IC50 (µg/ml), pseudovirus neutralization [33]: > 50 µg/mL; IC50 (µg/ml), pseudovirus neutralization [34]: > 50 µg/mL; IC50 (µg/ml), pseudovirus neutralization [35]: 20.7 µg/mL; IC50 (µg/ml), pseudovirus neutralization [36]: 2.42 µg/mL |
| 4E10 (antibody) | > 50 | 27.9 | 18.9 | 0.23 | 48 | 2.13 | 0.64 | 1.69 | 31.4 | 0.94 | 1.48 | 0.45 | 23.2 | 1.07 | 1.12 | 7.33 | 0.8 | 0.47 | 36.1 | > 50 | IC50 (µg/ml), pseudovirus neutralization [21]: 1.27 µg/mL; IC50 (µg/ml), pseudovirus neutralization [22]: 1.76 µg/mL; IC50 (µg/ml), pseudovirus neutralization [23]: 2.61 µg/mL; IC50 (µg/ml), pseudovirus neutralization [24]: 2.04 µg/mL; IC50 (µg/ml), pseudovirus neutralization [25]: 2.77 µg/mL; IC50 (µg/ml), pseudovirus neutralization [26]: 0.86 µg/mL; IC50 (µg/ml), pseudovirus neutralization [27]: 9.19 µg/mL; IC90 (pseudovirus neutralization) [28]: 29.6 µg/mL; IC50 (µg/ml), pseudovirus neutralization [29]: 1.36 µg/mL; IC90 (pseudovirus neutralization) [30]: 23.7 µg/mL; IC50 (µg/ml), pseudovirus neutralization [31]: 2.45 µg/mL; IC90 (pseudovirus neutralization) [32]: 23.5 µg/mL; IC50 (µg/ml), pseudovirus neutralization [33]: 1.47 µg/mL; IC50 (µg/ml), pseudovirus neutralization [34]: 1.34 µg/mL; IC50 (µg/ml), pseudovirus neutralization [35]: 4.27 µg/mL; IC50 (µg/ml), pseudovirus neutralization [36]: 1.23 µg/mL |
| b12 (antibody) | > 50 | > 50 | 0.02 | > 50 | > 50 | > 50 | > 50 | > 50 | > 50 | > 50 | > 50 | > 50 | 0.66 | 2.11 | 11.9 | > 50 | 0.89 | 0.63 | > 50 | > 50 | IC50 (µg/ml), pseudovirus neutralization [21]: > 50 µg/mL; IC50 (µg/ml), pseudovirus neutralization [22]: > 50 µg/mL; IC50 (µg/ml), pseudovirus neutralization [23]: > 50 µg/mL; IC50 (µg/ml), pseudovirus neutralization [24]: > 50 µg/mL; IC50 (µg/ml), pseudovirus neutralization [25]: 2.59 µg/mL; IC50 (µg/ml), pseudovirus neutralization [26]: 10.4 µg/mL; IC50 (µg/ml), pseudovirus neutralization [27]: > 50 µg/mL; IC90 (pseudovirus neutralization) [28]: 0.28 µg/mL; IC50 (µg/ml), pseudovirus neutralization [29]: > 50 µg/mL; IC90 (pseudovirus neutralization) [30]: > 50 µg/mL; IC50 (µg/ml), pseudovirus neutralization [31]: 6.16 µg/mL; IC90 (pseudovirus neutralization) [32]: > 50 µg/mL; IC50 (µg/ml), pseudovirus neutralization [33]: > 50 µg/mL; IC50 (µg/ml), pseudovirus neutralization [34]: > 50 µg/mL; IC50 (µg/ml), pseudovirus neutralization [35]: > 50 µg/mL; IC50 (µg/ml), pseudovirus neutralization [36]: > 50 µg/mL |
| 2F5 (antibody) | > 50 | 0.1 | 3.54 | 0.18 | 17.6 | > 50 | 0.14 | 0.96 | 24.8 | > 50 | 0.54 | 0.07 | 10.8 | 0.81 | 0.75 | 3.81 | 0.54 | 0.14 | 27.7 | > 50 | IC50 (µg/ml), pseudovirus neutralization [21]: 0.98 µg/mL; IC50 (µg/ml), pseudovirus neutralization [22]: 0.85 µg/mL; IC50 (µg/ml), pseudovirus neutralization [23]: 1.79 µg/mL; IC50 (µg/ml), pseudovirus neutralization [24]: 4.1 µg/mL; IC50 (µg/ml), pseudovirus neutralization [25]: > 50 µg/mL; IC50 (µg/ml), pseudovirus neutralization [26]: 0.33 µg/mL; IC50 (µg/ml), pseudovirus neutralization [27]: > 50 µg/mL; IC90 (pseudovirus neutralization) [28]: 19.3 µg/mL; IC50 (µg/ml), pseudovirus neutralization [29]: > 50 µg/mL; IC90 (pseudovirus neutralization) [30]: 34.4 µg/mL; IC50 (µg/ml), pseudovirus neutralization [31]: 0.78 µg/mL; IC90 (pseudovirus neutralization) [32]: 18.8 µg/mL; IC50 (µg/ml), pseudovirus neutralization [33]: > 50 µg/mL; IC50 (µg/ml), pseudovirus neutralization [34]: 7.21 µg/mL; IC50 (µg/ml), pseudovirus neutralization [35]: 2.36 µg/mL; IC50 (µg/ml), pseudovirus neutralization [36]: 1.33 µg/mL |
